Results published in article PMC4571279 (Nature Communications, 2015).

B1: Fab m336 (antigen-binding fragment of antibody m336, prepared by Lys-C digestion) (Fab, V domains shown)
VH: QVQLVQSGAEVKKPGSSVKVSCKASGGTFSSYAISWVRQAPGQGLEWMGGIIPIFGTASYAQKFQGRVTITADKSTSTAYMELSSLRSEDTAVYYCARVGYCSSTSCNRGAFDIWGQGTMVTVSS
VL: DIQLTQSPSSLSASVGDRVTITCRASQGIRNDLGWYQQKPGKAPKLLIYAASSLQSGVPSRFSGSGSGTDFTLTISSLQPEDFATYYCQQLNSYPLTFGGGTKVEIK
notes: also called m336 Fab
B2: Fab m336 (from the m336 Fab-expressing plasmid), wild type (Fab, V domains shown)
VH: B1 VH
VL: B1 VL
notes: also called wild-type m336
B3: IgG1 m336 (antibody, V domains shown)
VH: B1 VH
VL: B1 VL
notes: IgG1; also called wild-type m336; copies: 2 + 2

Assays:
[1] = target: T1, MERS-CoV Eng1 receptor-binding domain (RBD) (MERS-CoV Eng1, UniProt K9N5Q8); assay: crystal structure; details: both partners purified
T1 construct: source: GnTi-/- cells, purified (Ni-NTA, size exclusion chromatography in 1x PBS)

[2] = target: T2, recombinant MERS-CoV S1 protein (MERS-CoV, isolate EMC/2012 (strain of …, UniProt K0BRG7)); assay: ELISA; details: both partners purified
T2 construct: source: bought: Sino Biological Inc

T1 sequence (K9N5Q8 367-601): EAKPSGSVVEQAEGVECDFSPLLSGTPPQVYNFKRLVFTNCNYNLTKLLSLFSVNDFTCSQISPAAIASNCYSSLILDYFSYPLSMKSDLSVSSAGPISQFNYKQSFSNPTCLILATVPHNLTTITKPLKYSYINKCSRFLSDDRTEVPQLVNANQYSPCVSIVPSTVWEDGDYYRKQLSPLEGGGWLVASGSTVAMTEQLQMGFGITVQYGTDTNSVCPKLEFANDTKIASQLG

| Binder | binding result [1] | binding result [2] |
| --- | --- | --- |
| B1 | binds |  |
| B2 |  | binds |
| B3 |  | binds |
